The text below walks through data of paper PMC9381478, “A context-dependent and disordered ubiquitin-binding motif” (Cellular and Molecular Life Sciences: CMLS, 2022).

A short description of data set [1]: Solubility noted during NMR sample preparation. Format: physicochemical. The settings on record: NMR buffer; interaction mapped at 30 µM 15N-Spd1.
In a further data set the target is T1, ubiquitin (Schizosaccharomyces pombe, UniProt P0CH06).
T1 construct: plasmid coding for S. pombe ubiquitin with an N-terminal 6xhistidine-tag, TEV-cleavage site as well as an N-terminal free cysteine; made in house; host or cells: E. coli BL21(DE3)
The experiment in a line: NMR titration of 15N-ubiquitin (1H-15N HSQC chemical shift perturbations). The settings on record: ratio of Kd values for ubiquitin. Format: binding, S. pombe.

T1 sequence (P0CH06 1-76 limits assumed): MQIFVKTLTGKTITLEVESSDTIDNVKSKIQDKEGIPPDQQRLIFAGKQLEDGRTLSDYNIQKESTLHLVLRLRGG
Experimental for ubiquitin: For interaction of the peptides with ^15N-ubiquitin, the lyophilized peptides were dissolved in MilliQ water and pH adjusted to 7.5. […] For the titrations of ubiquitin with each peptide, except the WT Dss1 peptide, 100 µM ubiquitin in NMR buffer was measured as one end point, and the 1 mM peptide and 100 µM ubiquitin as the other. Then, the peptide sample was titrated into the ubiquitin sample with titration points at 0, 50, 150, 300, 400, 500 and 1000 µM peptide. […] NMR samples were centrifuged 13.000×g for 5 min and transferred to either single-use 5 mm NMR tubes (Bruker) or 3 mm (Shigemi). To prepare NMR samples of ^15 N-labeled ubiquitin with full-length Dss1 and variants, lyophilized proteins were dissolved directly in the NMR buffer. The variants were each dissolved in 510 µL NMR buffer with 100 µM ubiquitin. The concentration of Dss1 in the NMR sample was determined by measuring the absorbance at 280 nm on a ND-1000 NanoDrop spectrophotometer, calibrated with the NMR buffer with 100 µM ubiquitin. The concentration of Dss1 varied between variants, depending on the purification yield. For all titrations, seven points of varying Dss1 concentration were recorded. To prepare NMR samples of ^15N-labeled ubiquitin with Spd1, Spd1 was buffer exchanged to MilliQ using a 3 kDa cut-off Amicon Ultra-0.5 ml centrifugal filter (Merk Millipore), lyophilized and resuspended in NMR buffer with 100 µM ubiquitin. […] For experiments with ubiquitin, 200 µL 1 mM ubiquitin was buffer exchanged to MilliQ water using a 3 kDa cut-off Amicon Ultra-0.5 ml centrifugal filter (Merk Millipore), lyophilized, and subsequently resuspended in 100 µL NMR buffer with 1 mM Dss1 for a final ubiquitin concentration of 2 mM and 1 mM, respectively. All samples were transferred to 3 mm (Shigemi) NMR tubes.
All NMR spectra were recorded on Bruker Avance III HD 600 MHz spectrometer with a Bruker proton-optimized quadruple resonance NMR ‘inverse’ (QCI) cryoprobe, a Bruker Avance III HD 750 MHz spectrometer with a Bruker proton-optimized triple resonance NMR ‘inverse’ (TCI) cryoprobe and a Bruker Avance Neo 800 MHz spectrometer with a Bruker carbon/nitrogen-optimized triple-resonance NMR 'observe' (TXO) cryoprobe. […] All spectra were zero-filled, apodized using cosine bells in all dimensions, Fourier transformed, and the zero-order phase was corrected manually using either nmrDraw, a component of NmrPipe or qMDD if spectra were recorded using non-linear-sampling (NLS). All spectra were analysed using the Analysis software.
The CSPs were fitted to a one-site-binding model using global fit, and the Kd-values are extracted using Eq. 2.2 Δδobs=Δδmax∙Pt+Lt+Kd-Pt+Lt+Kd^2-4Pt∙Lt^1/2/2∙Pt.
Peaks giving rise to large uncertainties in the fit, either due to weak signals or overlap, were removed after a first iteration of fitting, and the fit repeated on the remaining dataset.

B1: Spd1: intrinsically disordered S. pombe protein, sequence printed in b198 (protein, UniProt Q10585 1-124, looked up)
chain: MHSSKRVMTTKTHVEQPESSMRPQLPESIQGSLMDVGMRVRKSISTGYKSKQTTFPAYNPPLYNTVSENIALKNTAFSYEPNGTKRPFEQAIPNYNWANPPQDFEEPEWLKPFDVVMEGTNERL
modifications: full-length
For the molecule B1, the solubility entry in data set [1] is reported as “low solubility”.

B2: full-length Dss1: recombinant full-length S. pombe Dss1 (N71C) (protein)
chain: MSRAALPSLENLEDDDEFEDFATENWPMKDTELDTGDDTLWENNWDDEDIGDDDFSVQLQAELKKKGVAAC
modifications: left off: His6-SUMO, N-terminal, cleaved
For B2, in the data set with ubiquitin, the “Kd of full-length protein lower than for the peptide alone” value was about 10 times.
